The subject of data set [1] is U937 cells. Kind of data set: U937 cell growth (proliferation) assay. It is filed as cell-based. To be noted: DFCS 5% v/v, peptide 0.03 mol/mol cholesterol oleate, 72 hours, range of cholesterol concentrations. As to the method: U937 stock cultures were grown at 37° C. in RPMI 1640 media supplemented glutamine (10 mM), gentamicin (50 μg/ml), fungizone (0.5 μg/ml) and 10% (v/v) foetal calf serum (FCS). Cells were maintained in a humidified 5% CO2, atmosphere between 1-8×10^5 cells/ml and sub-cultured twice weekly.
All growth assays were conducted over 72 hours in 24 well plates unless otherwise indicated. One day before each growth experiment, cells were centrifuged at 1500 rpm for 5 minutes and resuspended in RPM: medium containing 5% (v/v) delipidated foetal calf serum (DFCS) to initiate cholesterol starvation and up regulate LDL receptors. Cells were collected by centrifugation and seeded at 1×10^5/well. Appropriate amounts of cholesterol (either LDL, microemulsion or nLDL) were then added after filtration (0.2 μm) and the well volume made up to 1 ml with RPMI containing 5% (v/v) DFCS. After 72 hours an aliquot of each well was diluted with PBS and the number of cells present determined in triplicate by Coulter Counter. Different concentrations were repeated four or eight times depending on the experiment. Three wells per experiment were checked at random before commencement of incubation to ensure a uniform cell density was achieved. […] In all cases, the mean starting cell densities of control resells were between 0.95 and 1.05×10^5 cells/ml.

Data set [2] is described as follows: Particle size by photon correlation spectroscopy. It is filed as physicochemical. To be noted: for Peptide concentration producing increases in diameter: FIG. 8; for Effect of increasing peptide concentration on particle diameter: FIG. 8, Number Mean Diameter. The method, then: Particle size analysis was carried out using photon correlation spectroscopy (Zetasizer® Model 4, Malvern Instruments, Malvern, (UK). Before analysis samples were diluted with Tris-HCl buffer (0.01M) and filtered (0.2 μm). Sizing measurements were carried out at a fixed angle of 90° to the incident beam. The correlator was operated in parallel mode to allow for more accurate size distribution measurements. The cumulants method of analysis was used to calculate the mean sample size weighted according to the intensity of scattered light (z-average diameter). Since this diameter is weighted strongly on favour of large particles, Rayleigh theory was used to convert intensity distributions into number distributions [^12]. The viscosity and refractive index values of pure water were used in the size calculations. All results quoted are the mean and standard deviation of at least 10 measurements.

Data set [3] is described as follows: Zeta potential measurement. The class given is physicochemical. To be noted: for Zeta potential increase at low peptide concentrations: below 0.2 moles/mole CO, diameter unchanged; for Changes of mean number diameter and zeta potential in altered surface lipid formulations (FIG. 10): microemulsion formulations with PC, SM, UC, TO, CO; for Zeta potential reached with increasing peptide concentration: plateau / constant value, FIG. 8, pH 8.0 Tris, 25° C. As to the method:
Samples were diluted 1 in 5 with 0.01M Tris buffer (pH 8.0) and zeta potential measured at 25° C. using the Zetasizer® 4 (Malvern Instruments). The applied voltage was 150V in each case and duty cycling was used to limit the cell current to 20 mA. All results quoted are the mean and standard deviation of at least 10 measurements.

Data set [4] relates to B16 cells. The experiment in a line: 14C-nLDL cell binding assay at 4° C. To be noted: peptide 0.03 mol/mol cholesterol. The method, then: The required quantity of 14C-cholesteryl oleate (0.5 μCi-/mmol CO, supplied dissolved in toluene) was mixed if required with ten times its volume of DMSO prior to addition to stirred nLDL heated at 55° C. in a water bath. After incubation for 5 hours the mixture was passed down a Sephadex G-25M gel exclusion chromatography column (bed volume 10 ml) eluted with PBS. Fractions (1 ml) were collected their absorbance (300 nm) and 14C-cholesteryl oleate activity measured. Labelled preparations were filter sterilised (0.2 μm) and stored at 4° C. under N2 before use.
B16 cells were maintained in RPM: 1640 medium supplemented with 10% v/v FCS incubated at 37° C. in a 5% CO2 in air atmosphere. Confluent cultures were trypsinised, harvested and re-seeded at a dilution of 1 in 20 in fresh medium.
B16 cells were harvested in the log growth phase, washed by centrifugation and re-seeded into 24 well plates 1×10^5 cells/ml in media containing 10 v/v DFCS. After overnight incubation the cells were cooled to 4° C. for 1 hour, the media aspirated and replaced with ice cold media containing 10% v/v DFCS, supplemented with 14C-nLDL at a cholesterol concentration of 0.08 mmol/l. Four replicate wells were used for each concentration. Cells were then incubated at 4° C. for 4 hours with occasional rocking, the media aspirated and cells washed three times with ice cold PBS/BSA buffer (2 mg/ml BSA in PBS) followed by two ten minute incubations with ice cold PBS/BSA. Three final washes with ice cold PBS were then conducted. The 14C-cholesteryl oleate was extracted with hexane/isocropanol for 30 minutes at room temperature, aspirated and then mixed with 3 ml of scintillation fluid prior to counting. Cellular protein left in the well after extraction was assayed using Peterson's modification of the Lowry method^14. Sodium deoxycholate (1.5 mg/ml) was added to solubilise the protein, which was then precipitated by the addition of trichloroacetic acid (72% w/v), pelleted by centrifugation (5,000 rpm 10 minutes), the supernatant discarded and the pellet solubilised in Lowry reagent at room temperature for 20 minutes. Folin Ciocalteu's reagent was added, the solutions mixed and the colour allowed to develop for 30 minutes prior to absorbance measurements at 690 nm using a plate reader. A calibration curve was clotted from BSA standards ranging from 20 to 200 μg/ml.

“Also recorded” adds a separate entry of the source. No end group written: not given here. lipid anchor = not defined here

As to “Peptide A: eleven amino acids Apo B binding site peptide with both C and N terminal lipid anchors (FIG. 7) ({lipid anchor}-LRLTRKRGLKL; not fully specified (C-terminus); reading uncertain; also: C-terminal lipid anchor)”, the “Growth of U937 cells induced by different nLDL preparations (FIG. 4)” value in data set [1] was “least effective”. Besides, in data set [2], the “Peptide concentration producing increases in diameter” value is 0.5 moles /mole CO and the “Effect of increasing peptide concentration on particle diameter” value is listed as “Below 0.5 moles/mole Co Peptide A has no effect on size”. The “Difference in zeta potential between the lipid formulations” value in data set [3] (FIG. 10) is listed as “significant difference in zeta potential between the lipid formulations”. Moreover, in data set [3], the “Zeta potential increase at low peptide concentrations” value (“Zeta potential increase” for short) is “roughly equal”; the “Changes of mean number diameter and zeta potential in altered surface lipid formulations (FIG. 10)” value (“Changes” below) is “reversal of zeta potential with little change in diameter”; the “Zeta potential reached with increasing peptide concentration” value is listed as “around +17 mV”.

“Peptide B: eleven amino acid Apo B binding site peptide without the C-terminal cholesterol anchor (FIG. 7) ({lipid anchor}-GTTRLTRKRGLKL; not fully specified; reading uncertain)”: the “Growth of U937 cells induced by different nLDL preparations (FIG. 4)” value in data set [1] is given as “greatest increase in proliferation”. The “Effect of increasing peptide concentration on particle diameter” value in data set [2] is recorded as “size also remains constant; also recorded: no effect at any concentration”. Also, in data set [3], the “Zeta potential increase” value is “roughly equal”; the “Changes” value is listed as “reversal of zeta potential with little change in diameter”; the “Zeta potential reached with increasing peptide concentration” value is given as “~+15 mV”. Besides, the “Total binding curve to B16 cells (FIG. 11)” value (“Total binding curve” for short) in data set [4] is given as “saturable increase in total binding”.

For the substance “Peptide C: twenty two amino acid peptide containing the Apo B binding region, with both lipid anchors (FIG. 7) ({lipid anchor}-YKLQGTTRLTRKRGLKLATALS; not fully specified (C-terminus); reading uncertain; also: C-terminal lipid anchor)”, the “Growth of U937 cells induced by different nLDL preparations (FIG. 4)” value in data set [1] is reported as “greatest increase in proliferation”. Moreover, in data set [2], the “Peptide concentration producing increases in diameter” value stood at 0.2 moles /mole CO and the “Effect of increasing peptide concentration on particle diameter” value is given as “diameter almost doubles”. For the same substance, in data set [3], the “Zeta potential increase” value is recorded as “double the effect”; the “Changes” value was “large alterations in both parameters”. Moreover, the “Effect of peptide on zeta potential” value in data set [3] (increasing peptide concentrations, FIG. 8) is “reversal of zeta potential”. The “Total binding curve” value in data set [4] is reported as “saturable increase in total binding”.

With “Peptide D: twenty two amino acid peptide with the cholesterol anchor removed (FIG. 7) (YKLEGTTRLTRKRGLKLATALS; also: lipid anchor, cholesterol anchor removed)”, in data set [1], the “Growth of U937 cells induced by different nLDL preparations (FIG. 4)” value is “greatest increase in proliferation”. In data set [4], the “Total binding curve” value was “saturable increase in total binding”.

Regarding “Peptide E: random, non Apo B binding region sequence based on the amino acids of the previous peptides (FIG. 7) (TGKRYRLKTLRTLKKTSLLEAA; ()..() Synthesised peptide analogue of the Apo B 100 binding site)”, the “Growth of U937 cells induced by different nLDL preparations (FIG. 4)” value in data set [1] is given as “least effective”. In addition, the “Total binding curve” value in data set [4] is “saturable increase in total binding”.

The record behind these values is US6670452B2, “Non-naturally occurring lipoprotein particle” (University of Strathclyde, priority 1996, dated 2003).
